The values that follow come from patent US20170101455A1.

Test [1] deals with Insulin receptor. Nature of the test: SPR (BIACORE 3000), insulin receptor immobilised on CM5 chip; Test 3. A general note: In SPR one partner is held on a chip, and binding of the other changes the refractive index at the surface.
For test [2], the target named is Insulin receptor. Nature of the test: SPR (BIACORE 3000), insulin receptor immobilised on CM5 chip; Test 4.
Test [3] has as its target Insulin receptor. In words: SPR (BIACORE 3000), insulin receptor immobilised on CM5 chip; Test 5.
Test [4] has as its target Insulin receptor. Nature of the test: SPR (BIACORE 3000), insulin receptor immobilised on CM5 chip; Test 2.

As usually defined, the Kd is the free concentration of one partner at which half of the binding sites on the other are occupied at equilibrium, for simple one-to-one binding. Read a low Kd as a tighter complex. One may read the koff as the first-order rate constant of dissociation. The low end stands for slow dissociation, the high end for fast dissociation. The kon is the rate constant with which the complex forms. A high value points to faster complex formation. For “Native insulin-immunoglobulin Fc conjugate”, in the test with Insulin receptor [1], the Kd was 1240 nM, the ka relative to native human insulin was 2.7%, the kd relative to native human insulin came to 54.5% and the koff came out at 0.00585 s⁻¹. In the test with Insulin receptor [1], this substance had a kon of 5000 M⁻¹ s⁻¹ and a receptor binding affinity (KD) relative to native human insulin of 5.1%. In the test with Insulin receptor [2], the Kd was found to be 1140 nM, the ka relative to native human insulin was found to be 2.1%, the kd relative to native human insulin was 56.1% and the koff worked out at 0.0069 s⁻¹. In the test with Insulin receptor [2], this substance displayed a receptor binding affinity (KD) relative to native human insulin of 3.7%. Moreover, in the test with Insulin receptor [3], the Kd came out at 862 nM, the ka relative to native human insulin stood at 4.3%, the kd relative to native human insulin is 76.5% and the koff was 0.0074 s⁻¹. In the test with Insulin receptor [3], this substance registered a kon of 9000 M⁻¹ s⁻¹ and a receptor binding affinity (KD) relative to native human insulin of 5.9%. In the test with Insulin receptor [4], this substance gave a dissociation constant Kd of 781 nM, a ka relative to native human insulin of 3.9%, a kd relative to native human insulin of 77.2% and a koff of 0.0078 s⁻¹. In the test with Insulin receptor [4], this substance came in with an on-rate constant (kon) of 9000 M⁻¹ s⁻¹ and a receptor binding affinity (KD) relative to native human insulin of 5.9%.
